{"source": "the DeepSol protein solubility set"}
{"experiment": "soluble on expression in E. coli; label from the status in PepcDB or PDB records"}
{"sequence": "MSLRKKIAAFGEVMMRLQVPGYELLSQANTLNYSFSGTGVNVVAALSHLGHEGLLISTLPENSVGDAAVSYIQKLGIQTSLVSRGGKYVGMYFLENGFGARASRVTYSNRLESSFNTASEEIYQFEEIAKEIDIVHFCGITLAMNDTVRHHMKSLARAVKENGGTVVFDCNYRPSLWGEDGYEQAKPHYEEMLGLADIVMMNEKDAMFVLGIKTEETEREAQLVDLIPKVAETYHIATIAGTHRSINSDNTHSLRGFICKDGTFTFAKTLTFSVYDRIGAGDAYTSGIIHGEIKEFAPEKAVSFASAAGMLAHTIVGDTPMSSEKDILRAMTASVGDVEREGHHHHHH", "soluble on expression in E. coli": "soluble"}
{"sequence": "MGSDKIHHHHHHMSETEPTSEQPHIAITGGAGYIGSRVIYELQQAHPDWEITAIDNFYLGTVQSVGDVDIEHVDIRNRDRLEAALDGADVVMHLAAVSGVDDCEEKQDLAYEVNVQGTDNVAWFCRKTGAALIFPFSMAVIGDPQEFPITVDHPRDPLNWYGRTKLLNERDVETYADGAFPAHQFMISNLYGSHEIDGQTVSKGTVINFFVNRALAGETLTVYEPGTQSRNFIHVKDVARAYVDSCERLLEQLDRGETGVEKYEIASDEDPSVHTVAKLVRDIAADIADIDADVELVENPRGDDETLVDSFTVDTGRTTAALGWTPEHDVESAIRTALESANT", "soluble on expression in E. coli": "not soluble"}
{"sequence": "MIIFSGGTGTPKLLDGLKEILPEEELTVVVNTAEDLWVSGNLISPDLDTVLYLFSDQIDRKRWWGIENDTFGTYERMKELGIEEGLKLGDRDRATHIIRSNIIRDGASLTDSTVKLSSLFGIKANILPMSDDPVSTYIETAEGIMHFQDFWIGKRGEPDVRGVDIRGVSEASISPKVLEAFEKEENILIGPSNPITSIGPIISLPGMRELLKKKKVVAVSPIIGNAPVSGPAGKLMPACGIEVSSMGVAEYYQDFLDVFVFDERDRADEFAFERLGCHASRADTLMTSTEKSKELAEIVVQAFLEHHHHHH", "soluble on expression in E. coli": "soluble"}
{"sequence": "MEKFLVIAGPNAIESEELLLKVGEEIKRLSEKFKEVEFVFKSSFDKANRSSIHSFRGHGLEYGVKALRKVKEEFGLKITTDIHESWQAEPVAEVADIIQIPAFLCRQTDLLLAAAKTGRAVNVKKGQFLAPWDTKNVVEKLKFGGAKEIYLTERGTTFGYNNLVVDFRSLPIMKQWAKVIYDATHSVQLPGGLGDKSGGMREFIFPLIRAAVAVGCDGVFMETHPEPEKALSDASTQLPLSQLEGIIEAILEIREVASKYYETIPVK", "soluble on expression in E. coli": "soluble"}
{"sequence": "PDLYNHAIVIGYGRVGSMLAQLLQSRHVPLLVIDDNSEHVLKAHAAGIPAIRGSAAADLVLAEAHPERAKIAVLAIPQPLEAGEILAKLRALNPELTLVARAQNDAEVKHLLGHGADATVVAEHEMAHSLAEMVLSSTNH", "soluble on expression in E. coli": "not soluble"}
{"sequence": "MGSSHHHHHHGGTGENLYFQGGSGSRFYTAKEVREHAFHDDAYVSLNGKVLDLTPLIAAYKEMPKFAHLAKPLVQVAGTDISHWWDAEANDLRSCVDVNSGMRTYAMPLGRVPHMPTIYPDSNIDLNYDIPWWKDPQYIIGALTSRTRRIRIVNTLTGDETTLDVCAEETLEELLRERYLSINAHARSYTWVRLDPDPRELDMSRTLEDNGIHDEADSFEDLGLNADYYIPAIHLYYNDDLTEA", "soluble on expression in E. coli": "soluble"}
{"sequence": "PSQVFKPLVSLFSPIEPSVYEARGRLPREQLGETRLDYDRTFQLASVEAARLGIAEPIGELYYSFEYNFFGAGFGDHDDPMGKSWLFFHGSDGRLLGQEVAGQGSWGERFYRLQYPIHGGRIAGLPGR", "soluble on expression in E. coli": "not soluble"}
{"sequence": "GPGSMAAGNSISVKVDVPSQVKGQGTLEMSYYIYPITMRLPGFMSDARFNRRYTDFETLRGQLCATYWYCIVPPIPEKESVQDKLGKLPRMVASAKETTASEGDLLEYRRISLRRFLQRLAYHPILGKSDLLQKFTNDNEWRQCIRDPVKPPR", "soluble on expression in E. coli": "not soluble"}
{"sequence": "MGSDKIHHHHHHMNEAQQERRRSVRRDLHSYPEPAWREFYTTSRIAEEIERIGVDQLYIGRNVVDGDARMAVPDDDELEDWQRKARDAGAREDVLEAAAGGFTGALAVLEQGEGPTVALRVDIDALPITESDSVAHAPATEEFRSTNEGYMHACGHDAHATIGLGVLEAVKESDFKGTFKVVFQPAEEVIGGGKAVAESGHLDDVDHLLAIHIGLDHPTGEIVAGVGGFLAVRQFEATFTGETAHAGGHPAQGRDAVQALATAVQNLHAIRRHGDGATRVNAGVVEGGTATNIVPGEATLEGEVRGETTPLKEYMSERADTVMSSAAEMHDCEVAIETTAEAPSAVSDDALAGVVYDAADSVPGVTSRLRTDDLGGSEDATYLMDRVQNHGGTATFVGIGTDHPGGHHTPLFDIDEDSLTIGIDVVTEAISQLSG", "soluble on expression in E. coli": "not soluble"}
{"sequence": "MGSDKIHHHHHHMEVKVGLAPMAGYTDSAFRTLAFEWGADFAFSEMVSAKGFLMNSQKTEELLPQPHERNVAVQIFGSEPNELSEAARILSEKYKWIDLNAGCPVRKVVKKGAGGALLKDLRHFRYIVRELRKSVSGKFSVKTRLGWEKNEVEEIYRILVEEGVDEVFIHTRTVVQSFTGRAEWKALSVLEKRIPTFVSGDIFTPEDAKRALEESGCDGLLVARGAIGRPWIFKQIKDFLRSGKYSEPSREEILRTFERHLELLIKTKGERKAVVEMRKFLAGYTKDLKGARRFREKVMKIEEVQILKEMFYNFIKEV", "soluble on expression in E. coli": "not soluble"}
{"sequence": "MASRLFGVKCHNTDSEPLKNEDLLKNLLTMGVDIDMARKRQPGVFHRMITNEQDLKMFLLSKGASKEVIASIISRYPRAITRTPENLSKRWDLWRKIVTSDLEIVNILERSPESFFRSNNNLNLENNIKFLYSVGLTRKCLCRLLTNAPRTFSNSLDLNKQMVEFLQAAGLSLGHNDPADFVRKIIFKNPFILIQSTKRVKANIEFLRSTFNLNSEELLVLICGPGAEILDLSNDYARRSYANIKEKLFSLGCTEEEVQKFVLSYPDVIFLAEKKFNDKIDCLMEENISISQIIENPRVLDSSISTLKSRIKELVNAGCNLSTLNITLLSWSKKRYEAKLKKLSRFAHHHHHH", "soluble on expression in E. coli": "soluble"}
{"sequence": "MGSDKIHHHHHHMKGMEEVVIDAKDMHYRELNEKIHEILRENPDIKKIVLKNVLGQRFIADGIQKKDLTIEIYGIPGGDLGMFMSGPTIIVHGNAEFAPGNTMDDGTIVIYGSSGDVTAHSMRGGKVFVRGDVGYRSGIHMKAYKDKVPVLVIGGRAKDFLGEYMAGGIIIVLNIDEKGNDLGKVKGRMIGTGIHGGAIYIRGEIDKDQLGVAADIKEFTEEDLEKIKPYIEEFCKWFNLPEDVKNKLLNSKWTKIAPISKRPFGKLYTPDLM", "soluble on expression in E. coli": "not soluble"}
{"sequence": "EFRKLGEVCEILDNRRIPIAKNKRNPGIYPYYGANGIQDYIDSYIFDGDFVLVGEDGSVINKDNTPVVNWASGKIWVNNHAHVLQTKNELKLKFLYFYLQTIDVSYCVAGTPPKINQENLKKIAIPIPPLEIQQEIVKILDQFSI", "soluble on expression in E. coli": "not soluble"}
{"sequence": "MGSDKIHHHHHHMTEIKYKVITKDAFALPYTIIKAKNQPTKGVIVYIHGGGLMFGKANDLSPQYIDILTEHYDLIQLSYRLLPEVSLDCIIEDVYASFDAIQSQYSNCPIFTFGRSSGAYLSLLIARDRDIDGVIDFYGYSRINTEPFKTTNSYYAKIAQSINETMIAQLTSPTPVVQDQIAQRFLIYVYARGTGKWINMINIADYTDSKYNIAPDELKTLPPVFIAHCNGDYDVPVEESEHIMNHVPHSTFERVNKNEHDFDRRPNDEAITIYRKVVDFLNAITMV", "soluble on expression in E. coli": "not soluble"}
{"sequence": "VQSMSDESEKNSASPDAMRVGTRVLVRRQPEAATGVIVEDYAELTDTAGRGHDWAPVHRWAVALDDGRLVFADTEDLTVDIGTVDSE", "soluble on expression in E. coli": "not soluble"}
{"sequence": "MKSLQALFGGTFDPVHYGHLKPVETLANLIGLSRVIIMPNNVPPHRPQPEASSAQRKYMLELAIADKPLFTLDERELQRNAPSYTAQTLKAWREEQGPEAPLAFIIGQDSLLNFPTWHDYDTILDNTHLIVCRRPGYPLEMTQAQHQQWLEQHLTHTPDDLHQLPAGKIYLAETPWLNISATLIRERLEKGESCDDLLPENVLNYINQQGLYR", "soluble on expression in E. coli": "not soluble"}
{"sequence": "MKLANTKGERKLEQKLYYTDAYKQDFTTKVIKQDYDKDGNLYVILNETVFYPTGGGQPHDTGTLNGIAVLGVEEVDEEIRHFIAEQLHTEEVEGKINWERRFDHMQQHAAQHILSAAFWDYFNIPTIGFHLGKETVTIDLETENLHAETVEKAVQIANKIVFENHPILIKWMNLEEAKTLPLRKEPTMTENIRVVMIENFDYNGCGGTHPKRTGEVGPIQVLGWERNKGGIRLTFIAGWRTLKLMGQQQQIMKDVSKQLNSSEADIPAKVAQLLTSQKENKKAMQTMTEKLLYTEANELLQQPTKIHAGILISKVFTNRSMQEIAKLSAIITEQQEHAITYFVIENEDKLQCILACGKTVTLDMNALLKEALPTIEGKGGGNKKSARGGGKAMMSGDEFLNQLISSLQSAV", "soluble on expression in E. coli": "not soluble"}
{"sequence": "MSYPATRAEQVVDTLHGVQVADPYRWLEDEKAPEVQTWMTAQNAHAREALAKFPGREALAARFKELFYTDSVSTPSRRNGRFFYVRTHKDKEKAILYWRQGESGQEKVLLDPNGWSKDGTVSLGTWAVSWDGKKVAFAQKPNAADEAVLHVIDVDSGEWSKVDVIEGGKYATPKWTPDSKGFYYEWLPTDPSIKVDERPGYTTIRYHTLGTEPSKDTVVHERTGDPTTFLQSDLSRDGKYLFVYILRGWSENDVYWKRPGEKDFRLLVKGVGAKYEVHAWKDRFYVLTDEGAPRQRVFEVDPAKPARASWKEIVPEDSSASLLSVSIVGGHLSLEYLKDATSEVRVATLKGKPVRTVQLPGVGAASNLMGLEDLDDAYYVFTSFTTPRQIYKTSVSTGKSELWAKVDVPMNPEQYQVEQVFYASKDGTKVPMFVVHRKDLKRDGNAPTLLYGYGGFNVNMEANFRSSILPWLDAGGVYAVANLRGGGEYGKAWHDAGRLDKKQNVFDDFHAAAEYLVQQKYTQPKRLAIYGGSNGGLLVGAAMTQRPELYGAVVCAVPLLDMVRYHLFGSGRTWIPEYGTAEKPEDFKTLHAYSPYHHVRPDVRYPALLMMAADHDDRVDPMHARKFVAAVQNSPGNPATALLRIEANAGHGGADQVAKAIESSVDLYSFLFQVLDVQGAQGGVAAQGRHHHHHH", "soluble on expression in E. coli": "soluble"}
{"sequence": "MGSDKIHHHHHHAVVPGKKDFINENTPGSKVVQTPEGAWFKDDKNRQEWSITSEDGLRLKAIYLPADKKSNRTVIMAHGYMGSAETMSVFAKMYHDWGYNVLAPDARGHGKSQGDYIGFGWPDRKDYVQWIEKVLTENGQQEQITLYGVSMGAATVMMTSGEKLPDNVKAIVEDCGYSTVNQELQYQLKELFNLPSFPLVNVTSGITKLRAGYFFGEASAVKQLQKNHLPMLFIHGENDTFVPFSMLDEVYNATQGPKEKYVVPGAEHAKAYNKNPEKYKETVAAFLDKYIK", "soluble on expression in E. coli": "not soluble"}
{"sequence": "MIYEIGGHEVSIVRATPGLAKSYYDLLMELYEDPNSYILVNYSKDPPQLESIVERSKNWNVHPHYMHFALYKDKVVGFAGSLLGPDYGPEVQPHIAEIYYGVSKGWRKTGLIYALLYTALSDINAKIVKATAYVENLPSINVLLKIGLRIIAVLEENDFHYMSGKMHDDYLFRGFRSDCLNRLPGLLEKHGISVIR", "soluble on expression in E. coli": "not soluble"}
{"sequence": "MNEEVVMKFLHTSDWHVGRTLNGWSLLEEQEWAFQQIVDLAISEKVDGVIISGDLYDRAVPPVDAIKLFNKTLARLVLEEQIPVYAISGNHDGAERLHFGRDFFQHQGLHLSTRLEEAFEPIELENCQIFLLPFIDPIDARIYYKDDEGKEIQGIGDALTYILEDMEKAFDPDKAHVLVTHFAVSKKDDSDGQGLRELMLSETSNTVGGLTNVTSDLFKSFDYVALGHIHTRFASPTKRVQYSGSPVAFNVKEAKRKEEKGVYILELDASGDMSQTFHT", "soluble on expression in E. coli": "not soluble"}
